{"source": "paper PMC3536758", "target": "T1, MBP-ComKBco (Bacillus coagulans DSM 1) (UniProt K4MVI2)", "T1 sequence": "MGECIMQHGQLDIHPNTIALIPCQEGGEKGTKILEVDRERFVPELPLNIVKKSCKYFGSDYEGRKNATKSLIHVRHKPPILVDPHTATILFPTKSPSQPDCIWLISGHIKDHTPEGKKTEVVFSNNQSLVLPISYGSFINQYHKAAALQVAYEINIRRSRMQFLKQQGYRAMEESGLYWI", "assay": "EMSA", "details": "EMSA: binding buffer (composition not given) with poly(dI-dC), premixed on ice, 20 min at 30 C; 6% polyacrylamide gel in 1x TBE, 90 V, 60 min; pH and salt not …"}
{"sequence": "ACGGGTACCATTTGCCGGAAATCGACGTGCCGGCAGCAGGACATAAAAGTGACCCGGTCGCAATAAAGGGGCAATAAGTTTTCGGCATGTTCATCCTTGCCATTACATATGCTTAATATCGCCCGTTGCTTGCCGGTAGCGAACCAAGAAAATACCATATGCTGAAAGATCAGAGGGATCAAACATGCATGGATTATGGACAGCTTATTTTGCGGGGCCCCGT (double strand) [comCBco promoter]", "values": [{"measurement": "binding", "value": "binds more weakly"}]}
